From patent publication US20250051464A1 (IMMUNOME, published 2025)

Assays:
[1] = biological target: T1, human EphA2 (ephrin receptor A2), on cells (human, UniProt P29317 24-976); experiment: flow cytometry binding on A549 cells
T1 construct: Used for HEK293 transfectants, A549 and other human tumor cell lines
Method: (§1) Surface binding of the antibodies to in vitro grown cell lines was assessed by flow cytometry. Tumor cells were detached from their culture plate using Versene and counted. Cells were staining in BSA-containing buffer with primary antibody for 30 minutes at 4° C. with shaking. Following, cells were washed and stained with secondary PE-labeled antibody for 30 minutes at 4° C. with shaking. Before analysis on an Intellicyt iQue3 scanner, cells were counterstained with DAPI. MedFI values from live, single cells was expressed as fold over isotype control.

[2] = biological target: T1, human EphA2 (ephrin receptor A2), on …; experiment: flow cytometry binding on A549 cells, MedFI
Method: as §1

[3] = biological target: EphA4 (homologous receptor, screening at Integral Molecular) (UniProt P54764 20-986, limits assumed); experiment: screening at Integral Molecular
[4] = biological target: T2, mouse EphA2 on mouse tumor cells (CT26, EMT6, MC38, RENCA) (mouse, UniProt Q03145 26-977); experiment: flow cytometry, surface binding on CT26 cells (in vitro)
T2 construct: whole, on cells
Method: as §1

[5] = biological target: T3, EphA4_ECD (aa 23-546), full ECD, displayed on yeast (human, UniProt P54764 23-546); experiment: yeast surface display, flow cytometry titration of AB-008873
T3 construct: also called EphA4 full ECD; not shown: Aga2 fusion partner followed by an internal HA tag; C-terminal Myc tag
Method: Yeast cells were cultured in SDCAA (Teknova, S0543) and induced with SGCAA (Teknova, 50542). Cells were stained with pairs of primary and secondary antibodies. […] Chicken IgY anti-cMyc (Life technologies A21281) and Goat anti Chicken IgY FITC (Life technologies A11039) were used to assess expression levels. The analysis was run on the iQue3 flow cytometer. […] The FN2 domain of EphA2 alone is sufficient to mediate binding and expresses at high levels. […] FIG. 6. […] FN2 domain alone also has high relative expression. […] Swapping the FN1 domain from EphA4 into EphA2 enables binding of the epitope (diamond). Binding is lost when the FN2 domain from EphA4 is swapped into EphA2.

FcGR1 = biological target: T4, FcGR1 (human, UniProt P12314 16-374); experiment: flow cytometry, 6,000 human membrane proteins expressed on the surface of HEK293 cells
T4 construct: whole, on cells; An Fc receptor

[6] = biological target: T1, human EphA2 (ephrin receptor A2), on …; experiment: flow cytometry on A549 cells
Method: as §1

[7] = biological target: T1, human EphA2 (ephrin receptor A2), on …; experiment: flow cytometry on A549 cells, EC50 column

T1 sequence (P29317 24-976 limits assumed): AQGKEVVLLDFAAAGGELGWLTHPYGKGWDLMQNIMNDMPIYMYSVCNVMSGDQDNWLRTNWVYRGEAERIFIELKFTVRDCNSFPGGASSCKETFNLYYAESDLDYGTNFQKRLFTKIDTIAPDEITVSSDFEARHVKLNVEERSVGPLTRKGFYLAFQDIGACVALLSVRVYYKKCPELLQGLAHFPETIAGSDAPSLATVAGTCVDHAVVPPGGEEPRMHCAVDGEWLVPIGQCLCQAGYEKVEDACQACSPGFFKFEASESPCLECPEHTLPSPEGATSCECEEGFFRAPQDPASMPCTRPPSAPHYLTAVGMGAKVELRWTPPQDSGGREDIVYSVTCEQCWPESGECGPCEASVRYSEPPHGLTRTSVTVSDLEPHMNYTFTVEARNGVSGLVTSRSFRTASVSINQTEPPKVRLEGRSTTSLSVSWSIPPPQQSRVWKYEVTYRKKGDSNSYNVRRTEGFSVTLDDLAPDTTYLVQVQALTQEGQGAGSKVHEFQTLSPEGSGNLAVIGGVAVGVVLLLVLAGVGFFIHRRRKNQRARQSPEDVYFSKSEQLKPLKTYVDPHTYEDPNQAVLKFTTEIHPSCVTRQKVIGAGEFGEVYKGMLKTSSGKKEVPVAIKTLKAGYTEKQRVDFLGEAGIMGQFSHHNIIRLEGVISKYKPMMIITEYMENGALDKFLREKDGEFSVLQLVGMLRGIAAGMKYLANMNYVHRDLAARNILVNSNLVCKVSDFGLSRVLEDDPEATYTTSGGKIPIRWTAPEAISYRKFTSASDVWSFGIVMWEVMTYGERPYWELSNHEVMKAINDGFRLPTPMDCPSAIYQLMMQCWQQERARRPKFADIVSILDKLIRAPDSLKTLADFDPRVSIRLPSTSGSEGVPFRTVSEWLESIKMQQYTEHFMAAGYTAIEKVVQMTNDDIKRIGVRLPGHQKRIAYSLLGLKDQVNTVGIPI
T3 sequence (P54764 23-546): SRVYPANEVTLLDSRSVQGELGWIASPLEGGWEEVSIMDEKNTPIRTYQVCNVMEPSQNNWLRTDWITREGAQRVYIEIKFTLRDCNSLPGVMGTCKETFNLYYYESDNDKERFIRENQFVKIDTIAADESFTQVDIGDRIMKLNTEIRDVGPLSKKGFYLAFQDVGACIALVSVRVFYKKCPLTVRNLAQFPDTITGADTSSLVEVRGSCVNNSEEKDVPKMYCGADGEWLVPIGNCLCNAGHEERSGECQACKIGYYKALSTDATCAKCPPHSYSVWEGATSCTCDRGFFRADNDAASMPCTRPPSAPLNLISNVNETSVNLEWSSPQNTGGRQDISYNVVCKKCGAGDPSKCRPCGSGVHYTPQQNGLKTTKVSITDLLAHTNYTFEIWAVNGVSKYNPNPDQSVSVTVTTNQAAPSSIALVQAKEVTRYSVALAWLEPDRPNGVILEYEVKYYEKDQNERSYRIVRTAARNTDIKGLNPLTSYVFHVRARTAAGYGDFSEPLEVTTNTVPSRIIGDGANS
T4 sequence (P12314 16-374): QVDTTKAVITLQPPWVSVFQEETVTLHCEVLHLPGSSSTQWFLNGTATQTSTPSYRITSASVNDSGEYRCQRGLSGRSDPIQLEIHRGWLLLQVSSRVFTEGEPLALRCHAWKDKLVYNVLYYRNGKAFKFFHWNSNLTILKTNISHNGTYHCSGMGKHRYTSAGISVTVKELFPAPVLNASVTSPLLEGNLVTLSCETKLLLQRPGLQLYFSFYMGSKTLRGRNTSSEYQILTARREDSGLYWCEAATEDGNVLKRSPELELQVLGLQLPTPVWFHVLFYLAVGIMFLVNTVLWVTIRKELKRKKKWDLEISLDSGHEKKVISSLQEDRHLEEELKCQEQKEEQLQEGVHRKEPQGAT
Sequence of EphA4 (homologous receptor, screening at Integral Molecular) (P54764 20-986 limits assumed): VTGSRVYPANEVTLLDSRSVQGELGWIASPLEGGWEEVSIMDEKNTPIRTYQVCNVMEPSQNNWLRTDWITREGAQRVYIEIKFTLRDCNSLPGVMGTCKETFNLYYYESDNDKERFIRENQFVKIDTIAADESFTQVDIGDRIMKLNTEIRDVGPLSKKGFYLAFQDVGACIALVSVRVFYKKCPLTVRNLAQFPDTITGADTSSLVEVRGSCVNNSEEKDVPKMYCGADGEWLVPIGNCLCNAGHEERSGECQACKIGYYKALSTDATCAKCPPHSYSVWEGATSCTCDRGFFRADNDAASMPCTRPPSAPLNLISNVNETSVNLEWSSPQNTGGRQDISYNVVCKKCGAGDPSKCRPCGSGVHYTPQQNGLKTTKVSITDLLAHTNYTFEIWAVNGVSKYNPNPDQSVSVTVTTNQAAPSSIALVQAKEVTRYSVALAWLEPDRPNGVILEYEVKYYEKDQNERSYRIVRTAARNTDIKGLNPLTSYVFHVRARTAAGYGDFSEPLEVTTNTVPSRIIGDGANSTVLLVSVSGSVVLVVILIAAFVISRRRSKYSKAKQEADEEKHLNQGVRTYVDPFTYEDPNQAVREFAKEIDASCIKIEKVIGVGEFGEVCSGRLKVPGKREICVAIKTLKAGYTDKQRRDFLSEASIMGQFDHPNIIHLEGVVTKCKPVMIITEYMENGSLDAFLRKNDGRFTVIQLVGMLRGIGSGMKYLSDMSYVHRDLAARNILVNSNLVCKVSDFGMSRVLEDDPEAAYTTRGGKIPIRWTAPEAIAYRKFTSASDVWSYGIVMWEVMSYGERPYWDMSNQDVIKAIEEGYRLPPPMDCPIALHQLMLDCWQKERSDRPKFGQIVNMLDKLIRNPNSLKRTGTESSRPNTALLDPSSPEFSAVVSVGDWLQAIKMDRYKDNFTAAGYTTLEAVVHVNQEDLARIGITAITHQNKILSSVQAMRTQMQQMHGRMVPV
T2 sequence (Q03145 26-977): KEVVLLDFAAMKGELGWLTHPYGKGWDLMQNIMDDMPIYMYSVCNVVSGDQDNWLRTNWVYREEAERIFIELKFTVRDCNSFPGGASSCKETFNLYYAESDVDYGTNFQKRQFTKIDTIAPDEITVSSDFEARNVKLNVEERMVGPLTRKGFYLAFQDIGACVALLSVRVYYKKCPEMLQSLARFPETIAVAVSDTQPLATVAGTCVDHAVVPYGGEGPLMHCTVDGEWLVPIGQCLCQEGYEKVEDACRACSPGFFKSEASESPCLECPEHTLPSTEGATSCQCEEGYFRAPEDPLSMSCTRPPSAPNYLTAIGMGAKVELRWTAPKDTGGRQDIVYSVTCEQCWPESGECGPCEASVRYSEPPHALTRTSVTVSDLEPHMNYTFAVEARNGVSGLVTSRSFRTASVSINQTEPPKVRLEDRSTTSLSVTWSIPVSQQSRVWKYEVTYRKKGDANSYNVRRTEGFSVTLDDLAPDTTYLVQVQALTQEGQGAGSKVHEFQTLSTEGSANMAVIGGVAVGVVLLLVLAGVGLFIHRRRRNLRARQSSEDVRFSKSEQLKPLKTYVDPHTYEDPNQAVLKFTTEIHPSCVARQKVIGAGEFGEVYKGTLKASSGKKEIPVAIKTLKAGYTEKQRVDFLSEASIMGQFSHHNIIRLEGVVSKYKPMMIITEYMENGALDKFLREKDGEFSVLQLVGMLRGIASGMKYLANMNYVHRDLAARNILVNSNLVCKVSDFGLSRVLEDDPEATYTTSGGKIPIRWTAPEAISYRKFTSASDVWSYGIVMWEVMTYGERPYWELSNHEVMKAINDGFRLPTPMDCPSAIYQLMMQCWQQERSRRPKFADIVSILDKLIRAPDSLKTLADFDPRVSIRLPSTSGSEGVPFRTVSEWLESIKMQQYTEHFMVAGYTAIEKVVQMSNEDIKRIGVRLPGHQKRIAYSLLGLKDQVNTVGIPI

B1: AB-009806 (antibody, mouse IgG2a, V domains shown)
VH: QVQLQQWGAGLLKPSETLSLTCAVYGGSFSDYYWSWIRQPPGKGLEWIGEINHSGSTNYNPSLKSRVTISVDPSKNQFSLKLTSVTAADTAVYYCAKPFRPHCTNGVCYSGDAFDIWGQGTMVTVSS
VL: SYVLTQPPSVSVAPGQTARITCGGNNIGTKNVHWYQQKPGQAPVLVVYDDSDRPSGIPEQFSGSNSGNTATLTISRVEAGDEADYYCQVWDSSSDHLVFGGGTKLTVL
- Flow Delta activity (MedFI) [1]: 231000 MedFI
- EC50 (read off the curve) [2]: ~20 nM

B2: AB-008873 (mouse IgG2a format) (antibody)
heavy: QVQLQQWGAGLLKPSETLSLTCAVYGGSFSDYYWSWIRQPPGKGLEWIGEVNHRGSINYNNYNPSLKSRVTISVDPSKNQFSLKLTSVTAADTAVYYCAKPLRPHCTNGVCYSGDAFDIWGQGTMVTVASAKTTAPSVYPLAPVCGDTTGSSVTLGCLVKGYFPEPVTLTWNSGSLSSGVHTFPAVLQSDLYTLSSSVTVTSSTWPSQSITCNVAHPASSTKVDKKIEPRGPTIKPCPPCKCPAPNLLGGPSVFIFPPKIKDVLMISLSPIVTCVVVDVSEDDPDVQISWFVNNVEVHTAQTQTHREDYNSTLRVVSALPIQHQDWMSGKEFKCKVNNKDLPAPIERTISKPKGSVRAPQVYVLPPPEEEMTKKQVTLTCMVTDFMPEDIYVEWTNNGKTELNYKNTEPVLDSDGSYFMYSKLRVEKKNWVERNSYSCSVVHEGLHNHHTTKSFSRTPG
light: SYVLTQPPSVSVAPGQTARITCGGNNIGSKNVHWYQQKPGQAPVLVVYDDSDRPSGIPEQFSGSNSGNTATLTISRVEAGDEADYYCQVWDSSSDHLVFGGGTKLTVLGQPKSSPSVTLFPPSSEELETNKATLVCTITDFYPGVVTVDWKVDGTPVTQGMETTQPSKQSNNKYMASSYLTLTARAWERHSSYSCQVTHEGHTVEKSLSRADCS
- binding result [3]: no binding
- fold over isotype control (MedFI) [4]: 16 fold
- binding result [5]: no binding (tested: about 300 nM)
- binding result (FcGR1): binds

B3: AB-009817 (antibody, mouse IgG2a, V domains shown)
VH: QVQLQQWGAGLLKPSETLSLTCAVYGGSFSDYYWSWIRQPPGKGLEWIGEVNHRGSINYNNYNPSLKSRVTISVDPSKNQFSLKLTSVTAADTAVYYCAKPLRPHCTNAVCYSGDAFDIWGQGTMVTVAS
VL: SYVLTQPPSVSVAPGQTARITCGGNNIGSKNVHWYQQKPGQAPVLVVYDDSDRPSGIPEQFSGSNSGNTATLTISRVEAGDEADYYCQVWDSSSDHLVFGGGTKLTVL
- Delta (flow) [6]: 0
- binding result [7]: no binding
